The record followed here is article PMC4613507.

This assay concerns the target GST-N–ezrin (GST-tagged N-terminal ezrin 1–309 aa) (UniProt P15311). The experiment in a line: pull-down.
Sequence of UniProt P15311 (P15311 1-309): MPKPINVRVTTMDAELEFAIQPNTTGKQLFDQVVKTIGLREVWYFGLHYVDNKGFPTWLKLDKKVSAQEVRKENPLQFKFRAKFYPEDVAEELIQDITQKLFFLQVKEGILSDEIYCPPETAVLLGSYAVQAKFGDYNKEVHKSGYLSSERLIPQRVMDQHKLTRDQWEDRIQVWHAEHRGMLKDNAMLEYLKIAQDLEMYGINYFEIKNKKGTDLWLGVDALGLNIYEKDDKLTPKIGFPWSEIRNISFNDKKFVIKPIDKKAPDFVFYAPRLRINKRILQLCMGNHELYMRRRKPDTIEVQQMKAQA

For “His6–thioredoxin fused NHERF2–C109 (domain or fragment)”, the fold higher ezrin-binding affinity than NHERF1–C127 fell in the range of 4 to 8 fold.
